Values quoted from earlier work in US20170080049A1, “MEDICINE AGAINST GROWTH FAILURE INDUCED BY ADMINISTRATION OF STEROID” (DAIICHI SANKYO COMPANY, LIMITED, priority 2014, published 2017).
Positions of bridges follow the written chain, without caps; N, C: chain ends. No end group written: not given here.

Columns and labels:
NPR-B = target: T1, NPR-B (Homo sapiens, UniProt P20594); settings: Furuya et al. 1992; US 2010-305031; cited from earlier work
T1 sequence (P20594 23-1047): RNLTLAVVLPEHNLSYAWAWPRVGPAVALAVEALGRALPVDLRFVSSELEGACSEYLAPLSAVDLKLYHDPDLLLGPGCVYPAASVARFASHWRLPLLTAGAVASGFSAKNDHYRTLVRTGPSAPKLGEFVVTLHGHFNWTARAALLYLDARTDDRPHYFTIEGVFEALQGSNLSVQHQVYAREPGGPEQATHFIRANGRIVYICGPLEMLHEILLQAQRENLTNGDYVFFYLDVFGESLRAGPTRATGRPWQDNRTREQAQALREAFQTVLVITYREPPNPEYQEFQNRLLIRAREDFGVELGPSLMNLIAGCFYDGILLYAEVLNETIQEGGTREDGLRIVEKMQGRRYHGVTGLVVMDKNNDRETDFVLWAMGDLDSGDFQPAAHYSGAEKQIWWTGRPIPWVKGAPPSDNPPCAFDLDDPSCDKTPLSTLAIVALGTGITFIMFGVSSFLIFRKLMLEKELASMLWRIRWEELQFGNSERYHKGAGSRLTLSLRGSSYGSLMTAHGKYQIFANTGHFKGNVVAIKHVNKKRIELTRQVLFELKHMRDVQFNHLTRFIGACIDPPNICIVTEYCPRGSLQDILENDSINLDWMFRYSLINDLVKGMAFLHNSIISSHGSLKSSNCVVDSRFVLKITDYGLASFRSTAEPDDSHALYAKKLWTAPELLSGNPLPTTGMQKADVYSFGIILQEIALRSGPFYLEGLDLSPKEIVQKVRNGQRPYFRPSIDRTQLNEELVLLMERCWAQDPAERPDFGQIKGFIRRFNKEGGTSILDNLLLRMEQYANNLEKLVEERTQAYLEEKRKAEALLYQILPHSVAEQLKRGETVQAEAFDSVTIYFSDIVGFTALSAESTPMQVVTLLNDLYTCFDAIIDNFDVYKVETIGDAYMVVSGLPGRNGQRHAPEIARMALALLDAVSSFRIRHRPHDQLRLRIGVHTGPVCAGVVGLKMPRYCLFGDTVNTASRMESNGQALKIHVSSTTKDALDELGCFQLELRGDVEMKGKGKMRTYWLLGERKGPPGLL

normal mice = settings: continuous intravenous administration, normal mice (Non Patent Literature 9, 10); cited from earlier work

## CNP6-22: peptide consisting of only the ring structure (amino acid Nos. 6 to 22 of SEQ ID NO: 1) (CFGLKLDRIGSMSGLGC; disulfide 1-17 (inferred))
NPR-B
  NPR-B agonist activity compared with hCNP-22 (in words): almost the same NPR-B agonist activity as that of hCNP-22

## CNP-22: human-derived CNP-22 consisting of 22 amino acids, GLSKGCFGLK LDRIGSMSGL GC (GLSKGCFGLKLDRIGSMSGLGC)
Normal mice
  elongation of bone (in words): promoted
